# In patent US20220365100A1 (Janssen / Centocor, published 2022):
# Changes are numbered by the printed parent chain.
# B1: mAb7024 (antibody, human IgG1, lambda, V domains shown)
# VH: QVQLVQSGAEVKKPGSSVKVSCKASGGTFSSYAISWVRQAPGQGLEWMGSIIPWFGTTNYAQKFQGRVTITADESTSTAYMELSSLRSEDTAVYYCARDSEYYFDHWGQGTLVTVSS
# VL: DIQMTQSPSSVSASVGDRVTITCRASQGISNWLNWYQQKPGKAPKLLIYAASSLQSGVPSRFSGSGSGTDFTLTISSLQPEDFATYYCQQYSDDPTFGQGTKVEIKG
# notes: also called LM modulator of IL-17
# B2: mAb4538 (antibody, human IgG1, lambda, V domains shown)
# VH: QVQLQQSGPGLVKPSQTLSLTCAISGDSVSSSSAAWGWIRQSPSRGLEWLGRISYRSKWYNDYAVSVKSRITINPDTSKNQFSLQLNSVTPEDTAVYYCAREVDSMYYSYFDIWGQGTLVTVSS
# VL: EIVLTQSPATLSLSPGERATLSCRASQNVWAFYLAWYQQKPGQAPRLLIYGASNRATGIPARFSGSGSGTDFTLTISSLEPEDFAVYYCQQYRSTLSLTFGQGTKVEIKG
# notes: also called detection agent; anti-IL-17 antibody from Janssen Biotech, Inc
# B3: mAb732 (antibody, human IgG1, lambda, V domains shown)
# VH: B2 VH
# VL: B2 VL with Q90T, R93Y, T95S, L96P
# notes: as for B1
# What was measured:
# [1] = target: T1, recombinant IL-17 (human IL-17, interleukin 17A) (human, UniProt Q16552 24-155); experiment: competition in sandwich ELISA: IL-17A mixed with 10ug/ml modulator, free IL-17A detected with DuoSet DY317 (MAB317 capture, BAF317 detection)
# T1 construct: Serial dilutions of recombinant IL-17 from 1 ng/ml in ELISA; also called IL-17A; CTLA8
# [2] = target: T1, recombinant IL-17 (human IL-17, …); experiment: sandwich ELISA: AF-317 coated as capture, mAb4538 as detection, IL-17A titrated
# T1 sequence (Q16552 24-155 limits assumed): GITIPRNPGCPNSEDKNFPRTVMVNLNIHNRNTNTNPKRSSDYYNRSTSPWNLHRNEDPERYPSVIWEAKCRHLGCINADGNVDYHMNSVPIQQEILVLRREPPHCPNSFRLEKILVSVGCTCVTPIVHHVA
binding result [1],binding result [2],Binder
binds,,B1
,binds,B2
binds,,B3
